Usually Kd stands for the free concentration of one partner at which half of the binding sites on the other are occupied at equilibrium, for simple one-to-one binding. The koff is a measure of how fast the partners let go of each other. What is called kon is the rate constant with which the complex forms. What is called EC50 is the midpoint of the concentration-response curve.

In assay [1] the target is recombinant human TYRP1 (tyrosinase-related protein-1) (human) (UniProt P17643). Briefly: SPR (Biacore), TYRP1 immobilized on CM5 chip, antibody injected, 20-25 °C. On the technique in general: SPR reads the build-up and loss of mass on a sensor chip optically.
Assay [2] has the same target. Briefly: ELISA on plate-coated recombinant human TYRP1 (column headed 'Competition ELISA'); summary table. A general note: ELISA stands for enzyme-linked immunosorbent assay.
Assay [3] shares this target. Put plainly: ELISA, plate coated with recombinant human TYRP1, antibody titrated.
The target is the same in assay [4]. Put plainly: SPR (Biacore), TYRP1 immobilized; summary table.
In assay [5] the target is native human TYRP1 expressed on human melanoma cell lines (624mel, SKmel28, SKmel23) (human, UniProt P17643 25-537). Put plainly: cell-based or functional assay.

“TA99, murine monoclonal antibody (IgG2a) specific for human and murine TYRP1”: in assay [1], the Kd came to 1.7 nM, the koff turned out to be 0.00016 s⁻¹ and the kon is 95000 M⁻¹ s⁻¹. Further, in assay [2], the EC50 came out at 0.4 nM. In addition, the EC50 in assay [3] was 0.4 nM. In assay [4], the Kd is 1.7 nM.

B1: CTA99, chimeric antibody with a human constant region IgG1 (antibody, V domains shown)
VH: EVQLQQSGAELVRPGALVKLSCKTSGFNIKDYFLHWVRQRPDQGLEWIGWINPDNGNTVYDPKFQGTASLTADTSSNTVYLQLSGLTSEDTAVYFCTRRDYTYEKAALDYWGQGASVIVFS
VL: AIQMSQSPASLSASVGETVTITCRASGNIYNYLAWYQQKQGKSPHLLVYDAKTLADGVPSRFSGSGSGTQYSLKISSLQTEDSGNYYCQHFWSLPFTFGSGTKLEIKR
Consider B1, for which the “Human ADCC (%)” value in assay [5] amounted to 48%.

Values taken from patent US20090232823A1 (Eli Lilly, published 2009).
